# Measured values published in article PMC8560823, “Structural insights into the clustering and activation of Tie2 receptor mediated by Tie2 agonistic antibody” (Nature Communications, 2021).
# Numbering of substitutions follows the chain as printed. Names and notes keep the numbering of the source.
# B1: human Tie2-activating antibody (hTAAB), mouse IgG1 (antibody, V domains shown)
# VH: QVQLQQPGAELVRPGASVKLSCKASGYSFTSYWMNWVKQRPGQGLEWIGMIHPSDSETRLNQKFMDKATLTVDKSSSTAYMQLSSPTSEDSAVYYCARGLYGNSWGQGTLVTVSA
# VL: DIQMTQSPSSLSASLGERVSLTCRASQDIGISLNWLQQEPDGTIKRLIYATSSLDSGVPKRFSGSRSGSDYSLTISSLESEDFVDYYCLQYASSPYTFGGGTKLEIK
# notes: heavy-chain variable region of hTAAB (clone 3H7; closest germline mIGHV1-61*01); mouse IgG1 heavy-chain constant region; light-chain variable region of hTAAB (clone 3H7; closest germline mIGKV9-120*01); mouse kappa light-chain constant region; Mouse IgG1 from the hybridoma; also called 3H7; mouse hTAAB; source: B-cell hybridoma clone 3H7, serum-free culture supernatant, purified (Protein G); …
# B2: hTie2 Ig3–Fn3 D682C/N691C (domain or fragment, human, UniProt Q02763 349-738, looked up)
# chain: TPKIVDLPDHIEVNSGKFNPICKASGWPLPTNEEMTLVKPDGTVLHPKDFNHTDHFSVAIFTIHRILPPDSGVWVCSVNTVAGMVEKPFNISVKVLPKPLNAPNVIDTGHNFAVINISSEPYFGDGPIKSKKLLYKPVNHYEAWQHIQVTNEIVTLNYLEPRTEYELCVQLVRRGEGGEGHPGPVRRFTTASIGLPPPRGLNLLPKSQTTLNLTWQPIFPSSEDDFYVEVERRSVQKSDQQNIKVPGNLTSVLLNNLHPREQYVVRARVNTKAQGEWSEDLTAWTLSDILPPQPENIKISNITHSSAVISWTILDGYSISSITIRYKVQGKNECQHVDVKIKCATITQYQLKGLEPETAYQVDIFAENNIGSSNPAFSHELVTLPESQAP
# modifications: two intermolecular disulfide bonds between the introduced cysteines 682 and 691
# notes: human Tie2, Ig3–Fn3, residues 349–738, with D682C and N691C; Made by overlap extension PCR from the pFuse-hTie2 Ig3–Fn3–hIgG1–Fc construct; also called constitutive Tie2 Ig3–Fn3 dimer; Tie2 dimeric mutant; source: Expi293F, secreted as Fc fusion, purified as for hTie2 Ig3–Fn3 (MabSelect SuRe, Fc removed by thrombin); not shown: Fc (human IgG1), C-terminal, cleaved
# B3: hzTAAB-H1L1 (antibody, V domains shown)
# VH: QVQLVQSGAEVKKPGASVKVSCKASGYSFTSYWMHWVRQAPGQGLEWMGIIHPSDSETRYAQKFQGRVTMTRDTSTSTVYMELSSLRSEDTAVYYCARGLYGNSWGQGTLVTVSS
# VL: DIQMTQSPSSLSASVGDRVTITCRASQDIGISLGWYQQKPGKAPKRLIYATSSLQSGVPSRFSGSGSGTEFTLTISSLQPEDFATYYCLQYASSPYTFGQGTKLEIK
# B4: hzTAAB-H2L1 (antibody, V domains shown)
# VH: B3 VH with R72V, T74K
# VL: B3 VL
# B5: hzTAAB-H1L2 (antibody, V domains shown)
# VH: B3 VH
# VL: B3 VL with G34N, Y36L, Q55D, G66R
# B6: hzTAAB-H2L2 (antibody, V domains shown)
# VH: B3 VH with R72V, T74K
# VL: B3 VL with G34N, Y36L, Q55D, G66R
# Assays:
# [1] = biological target: T1, human Tie2 extracellular domain (hTie2 ECD) (human, UniProt Q02763); assay: SPR; Biacore T200; hTie2 ECD immobilised on CM5 chip by amine coupling (10 mM acetate pH 5.5); antibodies flowed at 0-64 nM, 300 s association, 300 s dissociation, 30 µl/min; HBS-EP+ buffer; 1:1-binding model, global fit; conditions: both partners purified
# T1 construct: human Tie2, extracellular domain, residues 23–735 of human Tie2; Host, tags and purification of the ECD are not described; also called Human Tie2 ECD; source: produced in house
# mouse Tie2 Ig3–Fn3 [2] = biological target: T2, mouse Tie2 Ig3–Fn3 (Mus musculus, UniProt Q02858); assay: BLI; Octet, 30 °C; mouse hTAAB (10 μg/ml) loaded on anti-mouse IgG Fc capture (AMC) biosensors; 1600 nM mouse Tie2 Ig3–Fn3 in kinetics buffer (0.01% BSA, 0.002% Tween-20, 0.005% NaN3 in PBS); 600 s association, 600 s dissociation; conditions: both partners purified
# T2 construct: mouse Tie2, Ig3–Fn3, residues 349–737; also called mTie2 Ig3–Fn3; mTie2
# [3] = biological target: the molecule itself; assay: cross-linking; engineered disulfide bonds (D682C/N691C) across the Fn3–Fn3' interface; SDS-PAGE with Coomassie blue under reducing and non-reducing conditions
# mouse Tie2 Ig3–Fn3 [4] = biological target: T2, mouse Tie2 Ig3–Fn3; assay: BLI; Octet, 30 °C; humanized IgG1s and mouse Tie2; how the humanized IgG1s were loaded is not told (Supplementary Fig. 5f); conditions: both partners purified
# T1 sequence (Q02763 23-735): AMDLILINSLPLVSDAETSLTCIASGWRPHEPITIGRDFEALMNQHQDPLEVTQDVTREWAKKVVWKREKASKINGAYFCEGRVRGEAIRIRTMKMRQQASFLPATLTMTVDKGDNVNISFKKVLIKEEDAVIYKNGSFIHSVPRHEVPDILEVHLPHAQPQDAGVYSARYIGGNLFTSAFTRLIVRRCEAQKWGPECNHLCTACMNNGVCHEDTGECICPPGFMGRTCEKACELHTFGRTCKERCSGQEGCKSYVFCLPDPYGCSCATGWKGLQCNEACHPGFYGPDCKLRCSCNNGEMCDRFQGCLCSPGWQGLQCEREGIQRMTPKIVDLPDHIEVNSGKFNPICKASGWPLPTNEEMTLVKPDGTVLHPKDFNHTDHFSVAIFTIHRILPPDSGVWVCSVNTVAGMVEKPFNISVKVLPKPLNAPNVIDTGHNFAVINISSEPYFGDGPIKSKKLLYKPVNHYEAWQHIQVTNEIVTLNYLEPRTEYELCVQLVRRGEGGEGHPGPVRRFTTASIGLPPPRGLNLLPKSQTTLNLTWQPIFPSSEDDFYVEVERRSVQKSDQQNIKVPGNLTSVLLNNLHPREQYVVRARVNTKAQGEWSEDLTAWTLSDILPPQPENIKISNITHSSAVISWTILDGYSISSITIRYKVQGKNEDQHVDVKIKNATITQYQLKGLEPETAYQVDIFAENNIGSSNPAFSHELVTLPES
# T2 sequence (Q02858 349-737): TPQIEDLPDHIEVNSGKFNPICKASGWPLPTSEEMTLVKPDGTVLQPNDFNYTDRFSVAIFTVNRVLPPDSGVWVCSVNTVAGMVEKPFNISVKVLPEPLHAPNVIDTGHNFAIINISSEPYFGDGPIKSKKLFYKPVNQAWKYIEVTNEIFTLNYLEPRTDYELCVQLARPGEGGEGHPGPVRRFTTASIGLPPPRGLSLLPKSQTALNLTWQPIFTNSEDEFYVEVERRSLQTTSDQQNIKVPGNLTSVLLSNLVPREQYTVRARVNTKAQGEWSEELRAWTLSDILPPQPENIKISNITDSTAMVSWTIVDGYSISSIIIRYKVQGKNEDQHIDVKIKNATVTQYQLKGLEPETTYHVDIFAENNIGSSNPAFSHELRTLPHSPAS
binder,measurement,setting,value
B1,Kd,[1],4.2 nM
same,koff,[1],0.0006 s⁻¹
same,kon,[1],140000 M⁻¹ s⁻¹
same,binding result,mouse Tie2 Ig3–Fn3 [2],no binding (tested: 1600 nM)
B2,binding result,[3],binds
B3,binding result,mouse Tie2 Ig3–Fn3 [4],no binding (tested: 1600 nM)
B4,binding result,mouse Tie2 Ig3–Fn3 [4],no binding (tested: 1600 nM)
B5,binding result,mouse Tie2 Ig3–Fn3 [4],no binding (tested: 1600 nM)
B6,binding result,mouse Tie2 Ig3–Fn3 [4],no binding (tested: 1600 nM)
